This is an account of results in PMC5278347, “Identification and Characterization of a Plastidic Adenine Nucleotide Uniporter (OsBT1-3) Required for Chloroplast Development in the Early Leaf Stage of Rice” (Scientific Reports, 2017).

In one series the target is T1, OsBT1-3 (Oryza sativa, UniProt A0A0P0WYD6).
T1 construct: gene Os06g0602700; E. coli Rosetta(DE3)pLysS, intact cells; antibody peptide VPGTEAESVNEEEVVDGK
T1 sequence (A0A0P0WYD6 1-423): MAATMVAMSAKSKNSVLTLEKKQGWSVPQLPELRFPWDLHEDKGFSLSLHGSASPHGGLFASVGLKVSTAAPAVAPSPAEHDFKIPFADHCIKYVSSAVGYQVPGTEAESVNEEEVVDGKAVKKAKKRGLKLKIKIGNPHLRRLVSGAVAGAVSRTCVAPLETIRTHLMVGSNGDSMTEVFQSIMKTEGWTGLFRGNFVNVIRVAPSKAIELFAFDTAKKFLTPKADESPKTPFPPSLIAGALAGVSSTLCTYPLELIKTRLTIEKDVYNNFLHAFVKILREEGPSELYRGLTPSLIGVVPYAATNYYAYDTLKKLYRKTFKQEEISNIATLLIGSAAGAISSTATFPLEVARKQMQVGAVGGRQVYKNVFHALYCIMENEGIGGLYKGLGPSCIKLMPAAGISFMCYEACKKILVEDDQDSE
Kind of series: inhibition of [α^32P]-ATP uptake into E. coli cells. Type of series: cell-based. The settings on record: 2000 µM; 2 mM PLP; lysozyme-treated cells; ATP printed as 50 mM (probably μM).

Substrate in series [1]: Nc1ncnc2c1ncn2[C@@H]1O[C@H](COP(=O)(O)OP(=O)(O)OP(=O)(O)O)[C@@H](O)[C@H]1O
As to the kind of experiment: cells, lysate or membranes. Type of series: cell-based, Oryza sativa. The note with it: labelled compound ([α^32P]-ATP); 0 to 900 μM; IPTG-induced cells, non-induced background subtracted.

Substrate in series [2]: Nc1ncnc2c1ncn2[C@@H]1O[C@H](COP(=O)(O)O)[C@@H](O)[C@H]1O
As to the kind of experiment: cells, lysate or membranes. Type of series: cell-based, Oryza sativa. The settings on record: labelled compound ([^14C]-AMP); 0 to 900 μM; IPTG-induced cells, non-induced background subtracted.

Substrate in series [3]: Nc1ncnc2c1ncn2[C@@H]1O[C@H](COP(=O)(O)OP(=O)(O)O)[C@@H](O)[C@H]1O
Kind of series: cells, lysate or membranes. The note with it: labelled compound ([α^32P]-ADP); 0 to 900 μM; IPTG-induced cells, non-induced background subtracted. Type of series: cell-based, Oryza sativa.

For `Cc1ncc(COP(=O)(O)O)c(C=O)c1O` [PLP], the “Transport Rate (%)” value on OsBT1-3 stood at 27.4 ± 1.9%.

B1: OsBT1-3 (Oryza sativa Japonica Group) (protein)
chain: MAATMVAMSAKSKNSVLTLEKKQGWSVPQLPELRFPWDLHEDKGFSLSLHGSASPHGGLFASVGLKVSTAAPAVAPSPAEHDFKIPFADHCIKYVSSAVGYQVPGTEAESVNEEEVVDGKAVKKAKKRGLKLKIKIGNPHLRRLVSGAVAGAVSRTCVAPLETIRTHLMVGSNGDSMTEVFQSIMKTEGWTGLFRGNFVNVIRVAPSKAIELFAFDTAKKFLTPKADESPKTPFPPSLIAGALAGVSSTLCTYPLELIKTRLTIEKDVYNNFLHAFVKILREEGPSELYRGLTPSLIGVVPYAATNYYAYDTLKKLYRKTFKQEEISNIATLLIGSAAGAISSTATFPLEVARKQMQVGAVGGRQVYKNVFHALYCIMENEGIGGLYKGLGPSCIKLMPAAGISFMCYEACKKILVEDDQDSE
notes: E. coli Rosetta(DE3)pLysS, intact cells; antibody peptide VPGTEAESVNEEEVVDGK
As for B1, the Michaelis constant (Km) in series [1] was found to be 83.5 ± 2.74 µM; in series [2], 106.1 ± 3.45 µM; in series [3], 101.7 ± 7.62 µM.

The Km is the substrate concentration at which the rate is half of its maximum.
